Laboratory results from patent US20260217860A1 (BIOCYTOGEN PHARMACEUTICALS BEIJING, published 2026).

T1: monkey (Macaca fascicularis) MUC1 on CHO-S-fasMUC1 cells (monkey (Macaca fascicularis))
T1 construct: CHO-S cells transfected with vectors expressing fasMUC1; also called monkey MUC1
T1 chain: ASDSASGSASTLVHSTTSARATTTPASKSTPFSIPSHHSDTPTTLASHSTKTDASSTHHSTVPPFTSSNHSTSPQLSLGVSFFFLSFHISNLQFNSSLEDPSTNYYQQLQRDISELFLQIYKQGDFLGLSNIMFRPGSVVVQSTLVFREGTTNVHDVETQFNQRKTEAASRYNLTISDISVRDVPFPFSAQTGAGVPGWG

T2: His-tagged monkey MUC1 (fasMUC1-His) (monkey, UniProt Q29435 181-380, limits assumed)
T2 construct: not shown: His tag
T2 chain: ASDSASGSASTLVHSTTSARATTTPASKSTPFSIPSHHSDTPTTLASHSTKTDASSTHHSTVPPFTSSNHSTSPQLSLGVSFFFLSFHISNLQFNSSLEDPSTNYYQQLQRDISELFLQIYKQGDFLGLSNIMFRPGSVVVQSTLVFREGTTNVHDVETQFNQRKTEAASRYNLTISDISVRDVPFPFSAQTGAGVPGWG


How the values were obtained:
[1] = target: T3, human MUC1 (484 amino acids) on CHO-S-hMUC1 (484AA) cells (human, UniProt P15941 24-1158); assay: flow cytometry, transfected CHO-S cells, 5 ug/mL
T3 construct: CHO cells transfected with vectors expressing 484 amino acids of human MUC1
Method: (§1) The anti-EGFR/MUC1 bispecific antibodies (5 μg/mL) were added to the 96-well plate, and incubated at 4° C. for 30 min. […] For the negative control (NC), only cells were added and no antibodies were added.

[2] = target: T1, monkey (Macaca fascicularis) MUC1 on …; assay: flow cytometry, transfected CHO-S cells, 5 ug/mL
Method: as §1

[3] = target: T4, monkey EGFR on CHO-S-fasEGFR cells (monkey, UniProt P55245 25-645); assay: flow cytometry, transfected CHO-S cells, 5 ug/mL
T4 construct: CHO-S cells transfected with vectors expressing fasEGFR
Method: as §1

[4] = target: T5, human EGFR on CHO-S-hEGFR cells (human, UniProt P00533 25-645); assay: flow cytometry, transfected CHO-S cells, 5 ug/mL
T5 construct: CHO-S cells transfected with vectors expressing hEGFR
Method: as §1

[5] = target: T6, His-tagged human EGFR protein (hEGFR-His, ACROBiosystems Inc., Cat #: EGR-H5222) (human, UniProt P00533 25-645); assay: SPR, Biacore 8K, 1:1 fit;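 also: His-tagged targets captured on the chip at roughly 100 RU, antibody analytes flowed at 1 µg/mL in HBS-EP+ pH 7.4, 50 s association, 400 s dissociation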
T6 construct: Bought protein; not shown: His tag

[6] = target: T7, His-tagged human MUC1 protein hMUC1(961-1152)-His (human, UniProt P15941 961-1152); assay: SPR, Biacore 8K, 1:1 fit;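 also: His-tagged targets captured on the chip at roughly 100 RU, antibody analytes flowed at 1 µg/mL in HBS-EP+ pH 7.4, 50 s association, 400 s dissociation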
T7 construct: also called hMUC(961-1152)-His; not shown: His tag

[7] = target: T8, His-tagged monkey EGFR protein (fasEGFR-His, ACROBiosystems Inc., Cat #: EGR-C52H1) (monkey); assay: SPR, Biacore 8K, 1:1 fit;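 also: His-tagged targets captured on the chip at roughly 100 RU, antibody analytes flowed at 1 µg/mL in HBS-EP+ pH 7.4, 50 s association, 400 s dissociation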
T8 construct: Bought protein
Method: (§2) Specifically, his-tagged proteins were diluted to 200 nM, with 1×HBS-EP+buffer (PH 7.4) and then injected into the Biacore™ 8K biosensor at 10 μL/min for about 50 seconds to achieve a desired protein density (e.g., about 100 response units (RU)). Purified antibodies at 1 μg/mL in 1× HBS-EP+buffer (PH 7.4) were then injected at 10 μL/min for 50 seconds.
(§3) Dissociation was monitored for 400 seconds. The chip was regenerated after the last injection of each titration with a glycine solution (pH 1.5) at 30 L/min for 30 seconds.

[8] = target: T2, His-tagged monkey MUC1 (fasMUC1-His); assay: SPR, Biacore 8K, 1:1 fit;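 also: His-tagged targets captured on the chip at roughly 100 RU, antibody analytes flowed at 1 µg/mL in HBS-EP+ pH 7.4, 50 s association, 400 s dissociation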
Method: as §2, §3

Binder | Percentage of Positive Cells (%) [1] [%] | Percentage of Positive Cells (%) [2] [%] | Percentage of Positive Cells (%) [3] [%] | Percentage of Positive Cells (%) [4] [%] | Kd [5] [nM] | koff [5] [s⁻¹] | kon [5] [M⁻¹ s⁻¹] | Kd [6] [nM] | koff [6] [s⁻¹] | kon [6] [M⁻¹ s⁻¹] | Kd [7] [nM] | koff [7] [s⁻¹] | kon [7] [M⁻¹ s⁻¹] | Kd [8] [nM] | koff [8] [s⁻¹] | kon [8] [M⁻¹ s⁻¹]
E-9A6-M-11E8 (bispecific antibody, Knobs-into-holes bispecific with a common light chain; also called anti-EGFR/MUC1 bispecific antibody) heavy 1: not shown heavy 2: QVQLVQSGGGVVQPGRSLRLSCAASGFTFSSYAMHWVRQAPGKGLEWVAVISDDGINKYYADSVKGRFTISRDNSKNTLYLQMNSLRAEDSAVYYCARALPTIFGVVMYFYYGLDVWGQGTTATVSSASTKGPSVFPLAPSSKSTSGGTAALGCLVKDYFPEPVTVSWNSGALTSGVHTFPAVLQSSGLYSLSSVVTVPSSSLGTQTYICNVNHKPSNTKVDKKVEPKSCDKTHTCPPCPAPELLGGPSVFLFPPKPKDTLMISRTPEVTCVVVDVSHEDPEVKFNWYVDGVEVHNAKTKPREEQYNSTYRVVSVLTVLHQDWLNGKEYKCKVSNKALPAPIEKTISKAKGQPREPQVCTLPPSREEMTKNQVSLSCAVKGFYPSDIAVEWESNGQPENNYKTTPPVLDSDGSFFLVSKLTVDKSRWQQGNVFSCSVMHEALHNHYTQKSLSLSPGK light: not shown | 93.5 | 45.1 | 23 | 63.3 | 5.54 | 0.00101 | 183000 | 9.99 | 0.00218 | 218000 | 5.44 | 0.00116 | 213000 | 40.5 | 0.0162 | 401000
E-9F3-M-11E8 (bispecific antibody, Knobs-into-holes bispecific with a common light chain; also called anti-EGFR/MUC1 bispecific antibody) heavy 1: not shown heavy 2: QVQLVQSGGGVVQPGRSLRLSCAASGFTFSSYAMHWVRQAPGKGLEWVAVISDDGINKYYADSVKGRFTISRDNSKNTLYLQMNSLRAEDSAVYYCARALPTIFGVVMYFYYGLDVWGQGTTATVSSASTKGPSVFPLAPSSKSTSGGTAALGCLVKDYFPEPVTVSWNSGALTSGVHTFPAVLQSSGLYSLSSVVTVPSSSLGTQTYICNVNHKPSNTKVDKKVEPKSCDKTHTCPPCPAPELLGGPSVFLFPPKPKDTLMISRTPEVTCVVVDVSHEDPEVKFNWYVDGVEVHNAKTKPREEQYNSTYRVVSVLTVLHQDWLNGKEYKCKVSNKALPAPIEKTISKAKGQPREPQVCTLPPSREEMTKNQVSLSCAVKGFYPSDIAVEWESNGQPENNYKTTPPVLDSDGSFFLVSKLTVDKSRWQQGNVFSCSVMHEALHNHYTQKSLSLSPGK light: not shown | 94.2 | 45.5 | 20.5 | 58.8 | 28.7 | 0.00203 | 70700 | 2.63 | 0.000881 | 336000 | 28.7 | 0.00193 | 67100 | 25.7 | 0.011 | 426000
E-9H2-M-11E8 (bispecific antibody, Knobs-into-holes bispecific with a common light chain; also called anti-EGFR/MUC1 bispecific antibody; E-9H2-M-llE8) heavy 1: not shown heavy 2: QVQLVQSGGGVVQPGRSLRLSCAASGFTFSSYAMHWVRQAPGKGLEWVAVISDDGINKYYADSVKGRFTISRDNSKNTLYLQMNSLRAEDSAVYYCARALPTIFGVVMYFYYGLDVWGQGTTATVSSASTKGPSVFPLAPSSKSTSGGTAALGCLVKDYFPEPVTVSWNSGALTSGVHTFPAVLQSSGLYSLSSVVTVPSSSLGTQTYICNVNHKPSNTKVDKKVEPKSCDKTHTCPPCPAPELLGGPSVFLFPPKPKDTLMISRTPEVTCVVVDVSHEDPEVKFNWYVDGVEVHNAKTKPREEQYNSTYRVVSVLTVLHQDWLNGKEYKCKVSNKALPAPIEKTISKAKGQPREPQVCTLPPSREEMTKNQVSLSCAVKGFYPSDIAVEWESNGQPENNYKTTPPVLDSDGSFFLVSKLTVDKSRWQQGNVFSCSVMHEALHNHYTQKSLSLSPGK light: not shown | 94 | 47 | 15.1 | 49.3 | 88.3 | 0.0157 | 178000 | 6.19 | 0.000571 | 92300 | 80.1 | 0.0173 | 215000 | 2.69 | 0.00105 | 389000
E-9D2-M-11E8 (bispecific antibody, Knobs-into-holes bispecific with a common light chain; also called anti-EGFR/MUC1 bispecific antibody) heavy 1: not shown heavy 2: QVQLVQSGGGVVQPGRSLRLSCAASGFTFSSYAMHWVRQAPGKGLEWVAVISDDGINKYYADSVKGRFTISRDNSKNTLYLQMNSLRAEDSAVYYCARALPTIFGVVMYFYYGLDVWGQGTTATVSSASTKGPSVFPLAPSSKSTSGGTAALGCLVKDYFPEPVTVSWNSGALTSGVHTFPAVLQSSGLYSLSSVVTVPSSSLGTQTYICNVNHKPSNTKVDKKVEPKSCDKTHTCPPCPAPELLGGPSVFLFPPKPKDTLMISRTPEVTCVVVDVSHEDPEVKFNWYVDGVEVHNAKTKPREEQYNSTYRVVSVLTVLHQDWLNGKEYKCKVSNKALPAPIEKTISKAKGQPREPQVCTLPPSREEMTKNQVSLSCAVKGFYPSDIAVEWESNGQPENNYKTTPPVLDSDGSFFLVSKLTVDKSRWQQGNVFSCSVMHEALHNHYTQKSLSLSPGK light: not shown | 93.8 | 47 | 16.8 | 50.1 | 59.5 | 0.02 | 337000 | 2.79 | 0.000543 | 195000 | 52.2 | 0.0248 | 476000 | 19.1 | 0.00896 | 470000
E-6C4-M-11E8 (bispecific antibody, Knobs-into-holes bispecific with a common light chain; also called anti-EGFR/MUC1 bispecific antibody) heavy 1: not shown heavy 2: QVQLVQSGGGVVQPGRSLRLSCAASGFTFSSYAMHWVRQAPGKGLEWVAVISDDGINKYYADSVKGRFTISRDNSKNTLYLQMNSLRAEDSAVYYCARALPTIFGVVMYFYYGLDVWGQGTTATVSSASTKGPSVFPLAPSSKSTSGGTAALGCLVKDYFPEPVTVSWNSGALTSGVHTFPAVLQSSGLYSLSSVVTVPSSSLGTQTYICNVNHKPSNTKVDKKVEPKSCDKTHTCPPCPAPELLGGPSVFLFPPKPKDTLMISRTPEVTCVVVDVSHEDPEVKFNWYVDGVEVHNAKTKPREEQYNSTYRVVSVLTVLHQDWLNGKEYKCKVSNKALPAPIEKTISKAKGQPREPQVCTLPPSREEMTKNQVSLSCAVKGFYPSDIAVEWESNGQPENNYKTTPPVLDSDGSFFLVSKLTVDKSRWQQGNVFSCSVMHEALHNHYTQKSLSLSPGK light: not shown | 94 | 48.2 | 18.3 | 48.1 | 91.8 | 0.0264 | 287000 | 2.66 | 0.00109 | 410000 | 79.3 | 0.0291 | 367000 | 25.7 | 0.0102 | 398000
